In data set [1] the target is T1, P. aeruginosa DHODase (PyrD, dihydroorotate dehydrogenase) (Pseudomonas aeruginosa, UniProt Q9HZF8).
T1 construct: pyrD open reading frame from PAO1 genomic DNA, in pET28a, recombinant Ni-NTA purified
In words: DCIP-based colorimetric enzyme assay, […] min preincubation, dose-response. The format is biochemical.

Substrate in data set [2]: O=C1C[C@@H](C(=O)O)NC(=O)N1
The data set can be described thus: steady-state enzyme kinetics (Km), DCIP colorimetric assay. It counts as biochemical, Pseudomonas aeruginosa. The conditions noted are these: FMN.

Substrate in data set [3]: COC1=C(OC)C(=O)C(C)=CC1=O
The data set can be described thus: steady-state enzyme kinetics (Km) as electron acceptor, DCIP colorimetric assay. It counts as biochemical, Pseudomonas aeruginosa. Particulars: FMN.

With `C[C@@H](NC(=O)CSc1nnnn1-c1ccc(O)cc1)c1ccc(-c2ccccc2)cc1` [compound 14], the IC50 (in general, the concentration at which inhibition is half-maximal) in data set [1] is 41 µM.

B1: P. aeruginosa DHODase (PyrD, dihydroorotate dehydrogenase) (Pseudomonas aeruginosa PAO1) (protein)
chain: MYTLARQLLFKLSPETSHELSIDLIGAGGRLGLNRLLTPKPASLPVSVLGLEFPNPVGLAAGLDKNGDAIDGFGQLGFGFIEIGTVTPRPQPGNPRPRLFRLPQANAIINRMGFNNHGVDHLLARVRAAKYRGVLGINIGKNFDTPVERAVDDYLICLDKVYADASYVTVNVSSPNTPGLRSLQFGDSLKQLLEALRQRQEALALRHGRRVPLAIKIAPDMTDEETALVAAALVEAGMDAVIATNTTLGREGVEGLPHGDEAGGLSGAPVREKSTHTVKVLAGELGGRLPIIAAGGITEGAHAAEKIAAGASLVQIYSGFIYKGPALIREAVDAIAALPRRN
notes: pyrD open reading frame from PAO1 genomic DNA, in pET28a, recombinant Ni-NTA purified
Consider B1, for which the Michaelis constant (Km) (in general, the concentration of substrate that gives half-maximal velocity) was determined as 60.8 µM in data set [2] and 25.6 µM in data set [3].
